Measurements published in the DeepSol protein solubility set.

Assay: soluble on expression in E. coli; label from the status in PepcDB or PDB records

| Sequence | soluble on expression in E. coli |
| --- | --- |
| MGSDKIHHHHHHMTQLIMRPRPGKIKLGLKASQAPAQLMDRLQYRPEVFEFFTSATDFEPEAFQTLKTAVQFVKTTVTEQIVIHHPMSYQGVHLDQLLDPHREAAAYQFLQTSTAQLLALATELDVKVLVHGGYGSDSGRLIDEYESLQVARDVVFERLDNLVRQASGHVVIENGVTASFMYGDPQLDERIIQHHYPLVCDLSHVFIALHGDMELTMLALKRLAPLIQHYHLVDSMGTRHDSLPLGQGLIDWQRVLPVLNPHATMIYEVPDETDATCANMLSSYHYLRALELRSIEGGQAND | not soluble |
| MADAIQTAPRFTGKNRDPQLFTVTNHYNEAGTGPLEAAICRHNPLHVVSAALRHQHEESQCPDRKWNPSEKIVKYKDMQ | not soluble |
| MDSRPGLRTTSPSSGTRTGRSNTRTLPPDPLLECAGRTRWPFGIREPDEDYPVTIIETEGFLNLVSVSAVALNQPFSLFFGAGVVLIPVRFECMRTPPVPAGRGGRVIRIVKFGIVRHLFSLLAQQVPVVQADGWIVNQNDQKKQNPPKRVKCGCVEDA | not soluble |
| MGSDKIHHHHHHMPINSFENYPMNWKPKRPSKGQILYKALAEQLEQDINNGFLLPGTKLPPQRELADFLDVNVSTISRAFKICEKKGLISGVTGSGTFVSYDTRSNLFLMSSNNKITFIEMGTMNPDFTLEEMNTLFKHIIKEIDFKTIFQYGQRDGAKWQKEAIAKLIYKAGLETTSDSLLPASGGQNAIVAILAGLFQHGDRIGVDPLTYPGIKTAAKMLGIQLIPIKQEDNEISEEGLLYACKNENIKGLYIIPDYQNPTTHIMSQNGRKMIANIASKYNLIVIEDAIHSLLNETHLNPVASYLPNQTIYITSLSKIIAPSLRLAYISTPKQYREALSSALYNINLSQSYFLTEIAYRMITSGEADKLINARRKSARRRNKIINQYLSGYNLLGNEECIFRWLILPDGIMAEKFEIQALKEGVQVYASERFAVGKEKPISAIRIAVCATESTEELKAGLSVLKRLLEEKK | not soluble |
| METAPKPVGPYSQAVESGCFMFVSGQIPINPETGALEEGGFKESAKRALDNLKAIVEGAGYSMDDIVKVTVYITDISRFSEFNEVYREYFNRPYPARAVVGVAALPLGAPLEVEAVLYTCRRK | soluble |
| GSSGSSGYQPTYNPTLPYKRPIPGGLSVGMSVYIQGMAKENMRRFHVNFAVGQDDGADVAFHFNPRFDGWDKVVFNTMQSGQWGKEEKKKSMPFQKGKHFELVFMVMPEHYKVVVNGNSFYEYGHRLPVQMVTHLQVDGDLELQSINFLGGQPAAAPY | soluble |
| MKANQLDILIVPGYKGSDPDHWQTRWEKKLSTARRVQQTHWSKPICEEWVNEVKIAIAQSQKPIVIIAHSLGVPTTIHATLKNAEKVRGAFFVAPPDVSNEKIRPKHLMTFGPYHCKKLSFPSVVIASRNDEFCQFSVAEKLAGDWGALFVDAGLSGHINVESGHGPWPEGLMVFSHFLAKI | not soluble |
| PQFGLFSKYRTPNCSQYRLPGCPRHFNPVCGSDMSTYANECTLCMKIREGGHNIKIIRNGPC | soluble |
| MDWLLTPGPVRLHPKALEALARPQLHHRTEAAREVFLKARGLLREAFRTEGEVLILTGSGTLAMEALVKNLFAPGERVLVPVYGKFSERFYEIALEAGLVVERLDYPYGDTPRPEDVAKEGYAGLLLVHSETSTGALADLPALARAFKEKNPEGLVGADMVTSLLVGEVALEAMGVDAAASGSQKGLMCPPGLGFVALSPRALERLKPRGYYLDLARELKAQKEGESAWTPAINLVLAVAAVLEEVLPRLEEHLALKAWQNALLYGVGEEGGLRPVPKRFSPAVAAFYLPEGVPYARVKEAFAQRGAVIAGGQGPLKGKVFRLSLMGAYDRYEALGVAGMFREVLEEILPAS | soluble |
| MGSDKIHHHHHHAAYGEDNHKKERHPDDRKINVGIRGGFNSSMFLVSDLKIKDVTIDEIQNNYKIGYFGALFMRLNMKRHFIQPEISYNISRCEISFDKLGSQHPDIEPDYASVSSTIHSIDFPLLYGYHVVKQGPYTMSLFAGPKLRYLWNKKNKITFENFDQQGIHEKLYPFNVSAVIGVSVNISRIFFDFRYEQGLHNLSKSVTYDNIDMEGRPEVSNITFRRRDNVLSFSLGVIF | not soluble |
| MTESNGNSEITTTEGNTGPVVESSLDPLAGRPEQSEDDIAKASDVEEYLRDVIDPELGINVVDLGLVYDIWMEGSIHAHVNMTLTSPACPLTDVIEDQAESAVVGNKVAETLTIHWVWMPPWGPHMITEDGREQLRALGFSV | not soluble |
| MSLKGRVAVRTVDAIPQTFAINGIFRISRGSKTSAQVIAVSIAESGYIGRGECVPYARYGETIESVMDQIRSMTPAIEAGMDLSELQSAMAPGAARNAVDCALWDLRAQKTRQSLASVIELGHELQPVLTAFTISLDAPAAMGKAAAVHEHLPILKLKLGGDGDLERVRAVRAAAPHARLMVDANEAWSIDHLRAFAPEFAAMGVELIEQPLPADADDFLKSFNSPVPLAADESCRTLMSLSKIVGKYEIANIKLDKAGGLTEALSLQAAARASGLGTMVGCMVATSLSMAPGIILAQRADVVHLDGPLLLAEDRTPSLRYSGATLYPPEPEVWGGEGHHHHHH | soluble |
| MVSCENLWQQALAILATQLTKPAFDTWIKASVLISLGDGVATIQVENGFVLNHLQKSYGPLLMEVLTDLTGQEITVKLITDGLEPHSLIGQESSLPMETTPKNATALNGKYTFSRFVVGPTNRMAHAASLAVAESPGREFNPLFLCGGVGLGKTHLMQAIAHYRLEMYPNAKVYYVSTERFTNDLITAIRQDNMEDFRSYYRSADFLLIDDIQFIKGKEYTQEEFFHTFNSLHEAGKQVVVASDRAPQRIPGLQDRLISRFSMGLIADIQVPDLETRMAILQKKAEYDRIRLPKEVIEYIASHYTSNIRELEGALIRAIAYTSLSNVAMTVENIAPVLNPPVEKVAAAPETIITIVAQHYQLKVEELLSNSRRREVSLARQVGMYLMRQHTDLSLPRIGEAFGGKDHTTVMYSCDKITQLQQKDWETSQTLTSLSHRINIAGQAPESLEHHHHHH | not soluble |
| MGSDKIHHHHHHMEHIFQAHSPGEAGEILQQNWEHWLMTTARWREILTYDPRPATGCSPKEILWTKNKAQLYHYQCSSERRYRTPVLMIYALINRPYVLDLTPGSSLVEYLVNEGFDVYLLDWGEFEWEDRDITYADLVYDYIATAARKVARSAGSKEISIIGYCMGGTMSTLYAALFDRPVLKNLVYLAAPIDFNRAGTYDVWLKAPGYDPDRIADTMELVPKSFIDWGTRMLNPLANYWGTYTRLWKTLEEGKSVHFWKVLNKWSSDNINFPGGAYRDWIRDFYQGNKLIKNQVVLRGKRVQLQRIKANILAMVGLRDHIVMPHQTAAALTYLGGNDKTYMEFPVGHGGLVLGETARMRVFPEIAYWLGERSEELSEE | not soluble |
| MSKSALHAFIDRARADEDFRSKLAHLDPNQIIEFAGQHGFLFSDEIKGRFINRWSGVYFCPQAIEVGQLCPALVPDGYKNLIHYAQSTCSSSNLSEEERDFRSGIKY | not soluble |
| GPGSMYQLWGGSPFKPHKQNPSIMIDKSGTEVRLIGESRDVLQTLATNPKWANTYLAISSTCDVPSWARELLGTFEFTDYAGKTVPMHSLFSDRIEIYKANKAKQHEMILQKVNKVDPSVSEYAQMLFFDNQTDNVRHVSGIGVTSCYCPSGMTKGTFEKGLEMWRRAAAVEDVRYDRVVECRA | not soluble |
| MPAVQETIRQVREIDVDQYKYGFETKIKTDKAPKGLNEDIIRFISAKKCEPEWMLKWRLQAFRRWLTMQEPDWARIEYPKIDFQELHYYAAPKNHTGPKSLEEVDPELLATYEKLGIPLKEQEILAGVRKQSDPSTFDESVYASGQVAVDAVFDSVSVVTTFKKELARAGVIFCSISEAIIEHPALINQYLGTVVPVGDNYYAALNAAVFTDGSFVYIPKGVRCPMELSTYFRINERNTGQFERTLIIADEDSYVSYLEGCTAPQRDENQLHAAVVELVALKNAEIKYSTVQNWYPGDKEGNGGIYNFVTKRGDCRGDNSKISWTQIETGSAITWKYPSCLLRGDNSRGEFYSIAVANGHQQIDSGTKMIHLGKNTSSRIVSKGISAGFSNNTYRGQVTAHRKAHNARNFTQCDSLLIGNDCGAHTVPYIEAKNATAQFEHEATTSKISDDQLFYVMQRGIPEEEAIALIVNGFVKEVIQKLPMEFAVEAQKLIGISLEGSVG | not soluble |
